In data set [1] the target is hMCM2-7 (human, UniProt P49736;P25205;P33991;P33992;Q14566;P33993 1-904;1-808;1-863;1-734;1-821;1-719). Kind of data set: negative stain EM, in-solution loading; double hexamers; loaded by ORC1-5, ORC6, CDC6, CDT1deltaN, ATP; more than without ORC6; 25 mM HEPES-KOH pH 7.5, 250 mM KGlu, 1 mM DTT, 4 mM MgOAc, 0.1% Triton X-100, 1 mM ATP or ATPgS, 30 C; high-salt wash adds 300 mM NaCl; in-solution: HEPES-NaOH, 0.05% Triton X-100. To be noted: protein: recombinant; tags: N-terminal Twin-Strep MCM2; N-terminal 8xHis MCM4; chain copies: 2;2;2;2;2;2; blunt.

The target of data set [2] is hORC1-5;hCDC6 (human;human, UniProt Q13415;Q13416;Q9UBD5;O43929;O43913;Q99741 1-861;1-577;1-711;1-436;1-435;1-560, |). The data set can be described thus: pull-down via Strep-hORC1; CDC6 retained with ORC1-5 only with DNA; 25 mM HEPES-KOH pH 7.5, 250 mM KGlu, 1 mM DTT, 4 mM MgOAc, 0.1% Triton X-100, 1 mM ATP or ATPgS, 30 C; high-salt wash adds 300 mM NaCl; in-solution: HEPES-NaOH, 0.05% Triton X-100. To be noted: protein: recombinant;recombinant; tags: N-terminal Twin-Strep on ORC1 (removed with SUMOstar protease in some preps);GST, cleaved; copies: 1;1;1;1;1;1; blunt.

B1: 158 bp lamin B2 (dsDNA)
DNA 1: GCCTGCCGCGCATGCGCACGAGGCACCCGGCGCGTCTATACAGCGTGTTGCCGCCGGGGCGGAGCCCGGTCGCATCACGTGACGAAGAGTCAGCTTGTGCAACAGCGTCGGAGGCTCACTAGAAAAAAAAGGGCAGGGTCCCATGCATCGCCTGGGTC
DNA 2: GACCCAGGCGATGCATGGGACCCTGCCCTTTTTTTTCTAGTGAGCCTCCGACGCTGTTGCACAAGCTGACTCTTCGTCACGTGATGCGACCGGGCTCCGCCCCGGCGGCAACACGCTGTATAGACGCGCCGGGTGCCTCGTGCGCATGCGCGGCAGGC
In the case of B1, the binding result in data set [1] is recorded as “binds”.

B2: 90 bp ARS1 (dsDNA)
DNA 1: GTTATTTTACAGATTTTATGTTTAGATCTTTTATGCTTGCTTTTCAAAAGGCCTGCAGGCAAGTGCACAAACAATACTTAAATAAATACTA
DNA 2: TAGTATTTATTTAAGTATTGTTTGTGCACTTGCCTGCAGGCCTTTTGAAAAGCAAGCATAAAAGATCTAAACATAAAATCTGTAAAATAAC
For B2, the binding result in data set [2] was “binds”.

Source of the values: PMC11711466, “Reconstitution of human DNA licensing and the structural and functional analysis of key intermediates”.
